Measured values: publication PMC4335062, “Data-Driven Prediction and Design of bZIP Coiled-Coil Interactions” (PLoS Computational Biology, 2015)
Values belong to the binder of their own block, whether it stands above or below them. Where no end group is shown, it is not given here.

Legend:
Assay in all cases: FRET or BRET; direct-binding FRET in 384-well plates; rhodamine-labelled design (acceptor) titrated 0 to 1 uM into 10 nM fluorescein-labelled bZIP (donor); 150 mM KCl, 50 mM potassium phosphate pH 7.4, 0.1% Tween-20, 0.1% BSA; 23 °C
MAFB = MAFB (Homo sapiens, UniProt Q9Y5Q3)
NFIL3 (human) = NFIL3 (human) (UniProt Q16649)
NFE2L3 (human) = NFE2L3 (human) (UniProt Q9Y4A8)
FOS = FOS (Homo sapiens, UniProt P01100)
NFE2L1 = NFE2L1 (Homo sapiens, UniProt Q14494)
Chain of NFE2L1 (Q14494 whole entry): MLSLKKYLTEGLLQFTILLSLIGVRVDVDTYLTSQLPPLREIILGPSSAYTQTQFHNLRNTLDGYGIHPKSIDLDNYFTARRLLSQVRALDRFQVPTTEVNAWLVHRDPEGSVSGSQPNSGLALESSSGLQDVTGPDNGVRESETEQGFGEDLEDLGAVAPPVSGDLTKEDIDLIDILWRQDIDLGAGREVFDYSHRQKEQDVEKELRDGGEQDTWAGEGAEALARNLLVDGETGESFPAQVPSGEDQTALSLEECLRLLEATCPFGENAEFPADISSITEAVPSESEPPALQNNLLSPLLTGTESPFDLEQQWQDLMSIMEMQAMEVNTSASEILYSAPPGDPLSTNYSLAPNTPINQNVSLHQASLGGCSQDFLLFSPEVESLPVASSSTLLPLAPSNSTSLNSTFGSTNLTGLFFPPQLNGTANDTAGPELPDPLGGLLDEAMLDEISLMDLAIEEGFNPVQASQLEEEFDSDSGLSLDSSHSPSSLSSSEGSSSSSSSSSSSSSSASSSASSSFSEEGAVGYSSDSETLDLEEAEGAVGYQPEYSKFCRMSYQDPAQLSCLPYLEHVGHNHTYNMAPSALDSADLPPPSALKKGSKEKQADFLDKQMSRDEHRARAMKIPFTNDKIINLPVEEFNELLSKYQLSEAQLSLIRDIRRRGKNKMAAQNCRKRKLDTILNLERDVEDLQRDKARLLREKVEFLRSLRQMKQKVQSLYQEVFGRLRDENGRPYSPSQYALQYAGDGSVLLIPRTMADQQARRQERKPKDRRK

Chain of NFIL3 (human) (Q16649 whole entry): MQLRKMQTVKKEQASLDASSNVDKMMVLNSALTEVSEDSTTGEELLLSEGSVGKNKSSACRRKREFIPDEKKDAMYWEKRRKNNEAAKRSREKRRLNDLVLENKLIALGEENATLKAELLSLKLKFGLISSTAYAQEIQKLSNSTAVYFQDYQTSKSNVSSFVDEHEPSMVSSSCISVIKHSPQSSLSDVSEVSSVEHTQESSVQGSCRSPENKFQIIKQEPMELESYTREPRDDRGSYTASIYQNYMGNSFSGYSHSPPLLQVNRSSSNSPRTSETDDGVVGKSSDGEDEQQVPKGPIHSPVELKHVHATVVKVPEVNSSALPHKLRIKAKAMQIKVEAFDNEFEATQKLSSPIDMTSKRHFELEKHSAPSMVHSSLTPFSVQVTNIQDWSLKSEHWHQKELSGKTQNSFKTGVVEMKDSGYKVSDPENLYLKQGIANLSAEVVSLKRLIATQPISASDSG
Chain of MAFB (Q9Y5Q3 whole entry): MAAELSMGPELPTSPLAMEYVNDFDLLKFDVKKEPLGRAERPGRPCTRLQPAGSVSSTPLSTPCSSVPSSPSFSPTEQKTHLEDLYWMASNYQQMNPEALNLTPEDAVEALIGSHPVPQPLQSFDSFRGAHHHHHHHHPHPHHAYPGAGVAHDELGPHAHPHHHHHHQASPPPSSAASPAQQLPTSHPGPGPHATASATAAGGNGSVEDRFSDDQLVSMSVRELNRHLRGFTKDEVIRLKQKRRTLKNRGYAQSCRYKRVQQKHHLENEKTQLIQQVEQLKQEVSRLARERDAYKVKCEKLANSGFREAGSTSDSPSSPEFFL
Chain of FOS (P01100 whole entry): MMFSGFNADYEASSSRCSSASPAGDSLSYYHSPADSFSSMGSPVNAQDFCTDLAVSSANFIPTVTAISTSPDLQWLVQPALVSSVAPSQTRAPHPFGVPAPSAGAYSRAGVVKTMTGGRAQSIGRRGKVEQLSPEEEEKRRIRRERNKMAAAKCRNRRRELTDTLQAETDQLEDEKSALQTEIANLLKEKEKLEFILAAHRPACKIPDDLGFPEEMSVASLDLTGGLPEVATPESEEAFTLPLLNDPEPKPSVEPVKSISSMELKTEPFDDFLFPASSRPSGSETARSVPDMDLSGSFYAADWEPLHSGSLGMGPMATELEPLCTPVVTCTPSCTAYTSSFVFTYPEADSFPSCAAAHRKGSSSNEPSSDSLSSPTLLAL
Chain of NFE2L3 (human) (Q9Y4A8 whole entry): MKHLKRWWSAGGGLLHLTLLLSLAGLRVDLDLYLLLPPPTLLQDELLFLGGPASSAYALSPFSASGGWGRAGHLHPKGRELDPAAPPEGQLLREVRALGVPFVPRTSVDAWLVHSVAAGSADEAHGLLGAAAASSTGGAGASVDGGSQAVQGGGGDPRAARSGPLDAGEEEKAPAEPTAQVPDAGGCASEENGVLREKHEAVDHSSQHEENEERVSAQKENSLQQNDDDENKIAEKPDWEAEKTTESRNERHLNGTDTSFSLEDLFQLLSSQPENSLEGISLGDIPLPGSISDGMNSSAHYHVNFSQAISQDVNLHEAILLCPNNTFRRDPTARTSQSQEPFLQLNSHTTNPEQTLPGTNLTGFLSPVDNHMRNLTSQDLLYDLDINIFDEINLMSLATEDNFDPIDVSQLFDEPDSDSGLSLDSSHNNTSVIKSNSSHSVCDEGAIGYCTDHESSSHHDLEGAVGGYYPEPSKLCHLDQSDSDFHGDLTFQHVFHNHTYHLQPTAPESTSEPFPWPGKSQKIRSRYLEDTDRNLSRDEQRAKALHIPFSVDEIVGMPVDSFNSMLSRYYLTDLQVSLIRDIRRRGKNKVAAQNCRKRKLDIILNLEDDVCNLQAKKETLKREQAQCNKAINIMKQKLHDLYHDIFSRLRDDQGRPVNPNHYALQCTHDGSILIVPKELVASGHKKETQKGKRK

Kd (MAFB): > 5 µM | Kd (NFIL3 (human)): > 5 µM | Kd (NFE2L3 (human)): 1 µM | Kd (FOS): 1 µM
B1: ATF4-d1 labeled at the C-terminus (designed binder)
chain: GESKEYKKGSGSNQIKTLRTRLSKLRKDNLQLEKDIANLERKAKDLRAEKEQLEYELGC
modifications: also: C59 label by assay: Rhodamine Red C2-maleimide or fluorescein-5-maleimide
notes: solubility linker after the His6 tag; added to the C-terminus for labeling; one molecule for the rhodamine- and the fluorescein-labelled form; the assay tells which label stood there; also called ATF4-d1-Rhodamine; ATF4-d1-FITC; source: E. coli RP3098, purified (Ni-NTA under denaturing conditions, reverse-phase HPLC)

Kd (NFE2L1): > 5 µM
B2: ATF5-d1 labeled at the C-terminus (designed binder)
chain: GESKEYKKGSGSKRIAYLRQRIAELRNENHVLESRIQRMEKEKDALQQDRDHLEYELGC(Rhodamine Red C2‑maleimide)
modifications: not fully specified
